In paper PMC11381544 (Nature Communications, 2024):

B2: human prolyl 3-hydroxylase 1 (P3H1) (enzyme, UniProt Q32P28-1 23-736, looked up)
chain: EVESEAGWGMVTPDLLFAEGTAAYARGDWPGVVLSMERALRSRAALRALRLRCRTQCAADFPWELDPDWSPSPAQASGAAALRDLSFFGGLLRRAACLRRCLGPPAAHSLSEEMELEFRKRSPYNYLQVAYFKINKLEKAVAAAHTFFVGNPEHMEMQQNLDYYQTMSGVKEADFKDLETQPHMQEFRLGVRLYSEEQPQEAVPHLEAALQEYFVAYEECRALCEGPYDYDGYNYLEYNADLFQAITDHYIQVLNCKQNCVTELASHPSREKPFEDFLPSHYNYLQFAYYNIGNYTQAVECAKTYLLFFPNDEVMNQNLAYYAAMLGEEHTRSIGPRESAKEYRQRSLLEKELLFFAYDVFGIPFVDPDSWTPEEVIPKRLQEKQKSERETAVRISQEIGNLMKEIETLVEEKTKESLDVSRLTREGGPLLYEGISLTMNSKLLNGSQRVVMDGVISDHECQELQRLTNVAATSGDGYRGQTSPHTPNEKFYGVTVFKALKLGQEGKVPLQSAHLYYNVTEKVRRIMESYFRLDTPLYFSYSHLVCRTAIEEVQAERKDDSHPVHVDNCILNAETLVCVKEPPAYTFRDYSAILYLNGDFDGGNFYFTELDAKTVTAEVQPQCGRAVGFSSGTENPHGVKAVTRGQRCAIALWFTLDPRHSERDRVQADDLVKMLFSPEEMDLSQEQPLDAQQGPPEPAQESLSGSESKPKDEL
B4: human cartilage-associated protein (CRTAP), strep-tagged (natural protein, UniProt O75718 27-401, looked up)
chain: QYERYSFRSFPRDELMPLESAYRHALDKYSGEHWAESVGYLEISLRLHRLLRDSEAFCHRNCSAAPQPEPAAGLASYPELRLFGGLLRRAHCLKRCKQGLPAFRQSQPSREVLADFQRREPYKFLQFAYFKANNLPKAIAAAHTFLLKHPDDEMMKRNMAYYKSLPGAEDYIKDLETKSYESLFIRAVRAYNGENWRTSITDMELALPDFFKAFYECLAACEGSREIKDFKDFYLSIADHYVEVLECKIQCEENLTPVIGGYPVEKFVATMYHYLQFAYYKLNDLKNAAPCAVSYLLFDQNDKVMQQNLVYYQYHRDTWGLSDEHFQPRPEAVQFFNVTTLQKELYDFAKENIMDDDEGEVVEYVDDLLELEETS

Columns and labels:
[1] = molecular target: B2; experiment: cryo-EM structure
[2] = molecular target: B4; experiment: cryo-EM structure
SEC = molecular target: the molecule itself; experiment: SEC

B1: human peptidyl-prolyl cis-trans isomerase B (PPIB), flag-tagged (enzyme)
chain: not shown
For B1, the “stoichiometry N” value [1] was 1 and the “stoichiometry N” value [2] was 1.

In the case of B2, the “stoichiometry N” value [2] is reported as 1.

B3: PCP complex with mutation W675L of P3H1 (complex)
chain 1: EVESEAGWGMVTPDLLFAEGTAAYARGDWPGVVLSMERALRSRAALRALRLRCRTQCAADFPWELDPDWSPSPAQASGAAALRDLSFFGGLLRRAACLRRCLGPPAAHSLSEEMELEFRKRSPYNYLQVAYFKINKLEKAVAAAHTFFVGNPEHMEMQQNLDYYQTMSGVKEADFKDLETQPHMQEFRLGVRLYSEEQPQEAVPHLEAALQEYFVAYEECRALCEGPYDYDGYNYLEYNADLFQAITDHYIQVLNCKQNCVTELASHPSREKPFEDFLPSHYNYLQFAYYNIGNYTQAVECAKTYLLFFPNDEVMNQNLAYYAAMLGEEHTRSIGPRESAKEYRQRSLLEKELLFFAYDVFGIPFVDPDSWTPEEVIPKRLQEKQKSERETAVRISQEIGNLMKEIETLVEEKTKESLDVSRLTREGGPLLYEGISLTMNSKLLNGSQRVVMDGVISDHECQELQRLTNVAATSGDGYRGQTSPHTPNEKFYGVTVFKALKLGQEGKVPLQSAHLYYNVTEKVRRIMESYFRLDTPLYFSYSHLVCRTAIEEVQAERKDDSHPVHVDNCILNAETLVCVKEPPAYTFRDYSAILYLNGDFDGGNFYFTELDAKTVTAEVQPQCGRAVGFSSGTENPHGVKAVTRGQRCAIALLFTLDPRHSERDRVQADDLVKMLFSPEEMDLSQEQPLDAQQGPPEPAQESLSGSESKPKDEL
chain 2: QYERYSFRSFPRDELMPLESAYRHALDKYSGEHWAESVGYLEISLRLHRLLRDSEAFCHRNCSAAPQPEPAAGLASYPELRLFGGLLRRAHCLKRCKQGLPAFRQSQPSREVLADFQRREPYKFLQFAYFKANNLPKAIAAAHTFLLKHPDDEMMKRNMAYYKSLPGAEDYIKDLETKSYESLFIRAVRAYNGENWRTSITDMELALPDFFKAFYECLAACEGSREIKDFKDFYLSIADHYVEVLECKIQCEENLTPVIGGYPVEKFVATMYHYLQFAYYKLNDLKNAAPCAVSYLLFDQNDKVMQQNLVYYQYHRDTWGLSDEHFQPRPEAVQFFNVTTLQKELYDFAKENIMDDDEGEVVEYVDDLLELEETS
chain 3: not shown
B3: binds (SEC).

B4: binds [1].
